Data on 1 substance can be found in article PMC7923384.

This assay concerns the target ZMYND8 (UniProt Q9ULU4). In words: co-IP of Flag-ZMYND8 and Myc-EZH2. To be noted: reference: wild type; sites T487.

Turning to EZH2 (from UniProt Q15910) T487A, the “binding against the reference” value is reported as “weaker”.
